The target in assay [1] is human sodium-dependent phosphate transporter 2B (NaPi2b) (human) (UniProt O95436). As to the kind of experiment: flow cytometry competition, HEK293-6e cells expressing human NaPi2b; row antibody unlabeled at 100 ug/mL (the reference of the calculation); competitor: AF647-labeled v23855 at 1 ug/mL.
Assay [2] has the same target. As to the kind of experiment: flow cytometry competition, HEK293-6e cells expressing human NaPi2b; row antibody unlabeled at 100 ug/mL (the reference of the calculation); competitor: AF647-labeled v18992 (MX35) at 1 ug/mL.
For assay [3] the target is unchanged. As to the kind of experiment: flow cytometry competition, HEK293-6e cells expressing human NaPi2b; row antibody unlabeled at 100 ug/mL (the reference of the calculation); competitor: AF647-labeled v18993 (lifastuzumab) at 1 ug/mL.
For assay [4] the target is unchanged. Description: flow cytometry competition, HEK293-6e cells expressing human NaPi2b; row antibody unlabeled at 100 ug/mL (the reference of the calculation); competitor: AF647-labeled v16955 (negative control) at 1 ug/mL.
Assay [5] concerns the target Fcγ receptor (FcγR) on the surface of immune effector cells. Description: cell-based or functional assay.

Sequence of human sodium-dependent phosphate transporter 2B (NaPi2b) (human) (O95436 whole entry): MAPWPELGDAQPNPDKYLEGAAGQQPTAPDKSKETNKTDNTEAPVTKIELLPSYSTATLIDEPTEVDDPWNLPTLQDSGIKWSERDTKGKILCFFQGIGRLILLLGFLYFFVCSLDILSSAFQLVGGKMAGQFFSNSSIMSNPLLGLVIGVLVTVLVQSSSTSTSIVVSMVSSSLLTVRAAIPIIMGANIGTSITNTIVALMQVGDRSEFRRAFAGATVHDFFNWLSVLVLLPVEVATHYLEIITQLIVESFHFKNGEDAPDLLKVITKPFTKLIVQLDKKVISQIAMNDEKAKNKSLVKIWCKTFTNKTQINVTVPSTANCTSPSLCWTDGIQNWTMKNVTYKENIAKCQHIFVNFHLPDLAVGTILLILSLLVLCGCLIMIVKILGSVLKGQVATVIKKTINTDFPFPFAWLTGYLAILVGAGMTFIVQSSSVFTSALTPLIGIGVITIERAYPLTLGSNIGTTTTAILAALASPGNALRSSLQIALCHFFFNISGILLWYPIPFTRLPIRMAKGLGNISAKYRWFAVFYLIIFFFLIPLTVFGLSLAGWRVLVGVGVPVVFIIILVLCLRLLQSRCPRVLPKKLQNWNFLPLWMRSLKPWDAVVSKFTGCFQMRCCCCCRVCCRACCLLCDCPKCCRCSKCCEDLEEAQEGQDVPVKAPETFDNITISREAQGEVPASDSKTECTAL

For the substance “v16955 (Palivizumab), anti-RSV negative control antibody”, the % Inhibition vs. irrelevant mAb in assay [1], in assay [2], in assay [3] and in assay [4] was 0% in each case.

In assay [5], v18993 (lifastuzumab) (antibody) displayed a % ADCC at 0.0192 nM (25 PBMCs:1 IGROV-1) of 5.96%, a % ADCC at 0.48 nM (25 PBMCs:1 IGROV-1) of 14% and a % ADCC at 12 nM (25 PBMCs:1 IGROV-1) of 14.4%.

Values taken from US20250235548A1, “ANTIBODY-DRUG CONJUGATES TARGETING NAPI2B AND METHODS OF USE” (Zymeworks BC Inc., priority 2022, published 2025).
